Reference: article PMC9536601

Experiments:
[1] = target: chimeric hexon of Ad5:H6.3 (Ad5 vector, hexon residues 112-593 from Ad6 hexon, HVR7 IGNTETF), on the virion (human adenovirus type 5 | human adenovirus type 6) (UniProt P04133); assay: SPR; Biacore T200; about 300 to 5,000 RU of Ad virions immobilised on a CM5 chip, coagulation factors flowed over at four concentrations, 50 uL/min; 10 mM HEPES, 150 mM NaCl, 1 mM CaCl2, 0.5 mM MgCl2, 0.1% BSA, 0.05% polysorbate 20, pH 7.4; global fit to a 1:1 kinetic interaction model, double referencing
[2] = target: chimeric hexon of Ad5:H57.1 (Ad5 vector, hexon residues 112-593 from Ad57 hexon), on the virion (human adenovirus type 5 | human adenovirus type 57) (UniProt P04133); assay: as above
[3] = target: chimeric hexon of Ad5:H6.2 (Ad5 vector, hexon residues 112-593 from Ad6 hexon, HVR7 IGNTDTF), on the virion (human adenovirus type 5 | human adenovirus type 6) (UniProt P04133); assay: as above
[4] = target: chimeric hexon of Ad5:H1.1 (Ad5 vector, hexon residues 112-593 from Ad1 hexon), on the virion (human adenovirus type 5 | human adenovirus type 1) (UniProt P04133); assay: as above
[5] = target: chimeric hexon of Ad5:H6.1 (Ad5 vector, hexon residues 112-593 from Ad6 hexon), on the virion (human adenovirus type 5 | human adenovirus type 6) (UniProt P04133); assay: as above
[6] = target: chimeric hexon of the Ad5 vector Ad5:H1.1 (Ad5 hexon with residues 112-593 from Ad1 hexon, on virions) (human adenovirus 5 | human adenovirus 1) (UniProt P04133); assay: SPR; Biacore T200; about 300 to 5,000 RU of Ad virions immobilised on a CM5 chip, coagulation factors flowed over at four concentrations, 50 uL/min; running buffer 10 mM HEPES, 150 mM NaCl, 1 mM CaCl2, 0.5 mM MgCl2, 0.1% BSA, 0.05% polysorbate 20, pH 7.4; regeneration with 3 mM EDTA; global fit to a 1:1 kinetic interaction model, double referencing
[7] = target: chimeric hexon of the Ad5 vector Ad5:H6.1 (Ad5 hexon with residues 112-593 from Ad6 hexon, on virions) (human adenovirus 5 | human adenovirus 6) (UniProt P04133); assay: as above
[8] = target: chimeric hexon of the Ad5 vector Ad5:H6.2 (Ad6 hexon section with HVR7 mutations, on virions) (human adenovirus 5 | human adenovirus 6) (UniProt P04133); assay: as above
[9] = target: chimeric hexon of the Ad5 vector Ad5:H57.1 (Ad5 hexon with residues 112-593 from Ad57 hexon, on virions) (human adenovirus 5 | human adenovirus 57) (UniProt P04133); assay: as above
[10] = target: hexon of wild-type human adenovirus type 1 (on virions) (human adenovirus 1); assay: as above
[11] = target: chimeric hexon of the Ad5 vector Ad5:H6.3 (Ad6 hexon section with HVR7 mutations, on virions) (human adenovirus 5 | human adenovirus 6) (UniProt P04133); assay: as above

With “bovine prothrombin (coagulation factor II) (from UniProt P00735 44-625) (natural protein)” the Kd [1] was 2.5 µM, the Kd [2] was 0.027 µM and the Kd [3] was 0.95 µM. It also gave a Kd [4] of 0.034 µM, a Kd [5] of 0.067 µM and a Kd [6] of 0.034 µM. It also gave a koff [6] of 0.00224 s⁻¹, a kon [6] of 65800 M⁻¹ s⁻¹ and a Kd [7] of 0.067 µM. It also gave a koff [7] of 0.0039 s⁻¹, a kon [7] of 58200 M⁻¹ s⁻¹ and a Kd [8] of 0.95 µM. It also gave a koff [8] of 0.0291 s⁻¹, a kon [8] of 30500 M⁻¹ s⁻¹ and a Kd [9] of 0.027 µM. It also gave a koff [9] of 0.000993 s⁻¹, a kon [9] of 37400 M⁻¹ s⁻¹ and a Kd [10] of 0.037 µM. The koff [10] was 0.00193 s⁻¹, the kon [10] was 52800 M⁻¹ s⁻¹ and the Kd [11] was 2.5 µM. For the same substance, the koff [11] was 0.0729 s⁻¹ and the kon [11] was 29200 M⁻¹ s⁻¹.
